This data set deals with BPV1 E2 protein (Bovine papillomavirus 1, UniProt P03122 P03122:1-410). The data set can be described thus: cell_activity. The conditions noted are these: chain copies: 2.
Chain of BPV1 E2 protein (P03122 whole entry, one chain of several): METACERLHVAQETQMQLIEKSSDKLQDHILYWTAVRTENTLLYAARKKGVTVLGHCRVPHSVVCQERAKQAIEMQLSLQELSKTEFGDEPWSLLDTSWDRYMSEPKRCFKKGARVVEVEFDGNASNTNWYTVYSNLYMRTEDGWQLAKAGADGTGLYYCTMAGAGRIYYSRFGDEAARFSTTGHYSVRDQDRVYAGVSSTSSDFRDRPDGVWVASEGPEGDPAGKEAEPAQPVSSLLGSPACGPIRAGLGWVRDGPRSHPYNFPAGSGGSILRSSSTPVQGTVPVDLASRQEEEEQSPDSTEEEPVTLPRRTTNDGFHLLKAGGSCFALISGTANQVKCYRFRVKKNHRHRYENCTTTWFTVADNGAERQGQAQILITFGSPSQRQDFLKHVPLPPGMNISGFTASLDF

B1: BPV1 E2 binding sites (E2BS) (dsDNA)
DNA 1: ACCGTTGCCGGTCGGATCTGTACCGTTGCCGGTCGGATCTGTACCGTTGCCGGTCGGATCTGTACCGTTGCCGGTCGGATCTGTACCGTTGCCGGTCGGATCTGTACCGTTGCCGGTCGGATCTGTACCGTTGCCGGTCGGATCTGTACCGTTGCCGGTCGGATCTGTACCGTTGCCGGTC
DNA 2: GACCGGCAACGGTACAGATCCGACCGGCAACGGTACAGATCCGACCGGCAACGGTACAGATCCGACCGGCAACGGTACAGATCCGACCGGCAACGGTACAGATCCGACCGGCAACGGTACAGATCCGACCGGCAACGGTACAGATCCGACCGGCAACGGTACAGATCCGACCGGCAACGGT
B1 returned a binding signal of roughly 3.5 fold.

These data come from patent US20200123576, “Platform for developing stable mammalian cell lines” (Icosagen Cell Factory OÜ, published 2020).
